# In publication PMC10778931, “Structure–Functional Examination of Novel Ribonucleoside Hydrolase C (RihC) from Limosilactobacillus reuteri LR1” (International Journal of Molecular Sciences, 2023):
# B1: LreRihC_HisC (Limosilactobacillus reuteri) (protein)
# chain: MTTKIIMDTDPGIDDAAALTMAINDPSLDLKLVTTVAGNVTADKTTANALKIIHFFGKDIPVAAGAKQPLIKPFEDAARIHGESGMPGYDFGDDYGKPLDKTAVEALHDAIMAEDEVILVPTGSYTNIALLFSEYPEVKSHIKQIVAMGGSFSGGNMTSAAEFNVFTDPDAAKIMYNAGVPIVTVGLDVTLKALLTADTIEKLGSLNKTGEMLHGLITHYNDGNDQGRPMHDVNTIFYLLHPEAFTTKDMWVDIQTDGPAIGATVGDIRAAYHDGKTNAKVCLDIDAEYFNKWFLEEVSKMK
# notes: E. coli BL21(DE3), pET24a(+); tetramer (123 kDa)
# B2: ribonucleoside hydrolase C from Limosilactobacillus reuteri LR1 with the addition of His-tag to the N-terminus of the enzyme (enzyme, UniProt A5JJT3 1-302, looked up)
# chain: B1 chain
# notes: Ribonucleoside hydrolase C (RihC) of Limosilactobacillus reuteri LR1, cloned from genomic DNA with primers from the start codon to the stop codon; 308 residues and 33.38 kDa with the His-tag; The residue numbers printed for the crystal structure (D16, D20, D21, loop DGNDQ 228-232) seem to count on the tagged construct (surmised from the primer); Each subunit holds one Ca2+ ion; source: E. coli …
# B3: ribonucleoside hydrolase C from Limosilactobacillus reuteri LR1 with the addition of His-tag to the C-terminus of the enzyme (enzyme, UniProt A5JJT3 1-302, looked up)
# chain: B1 chain
# notes: 308 residues and 33.38 kDa with the His-tag; PDB 8QND is the structure of the N-terminally tagged form of the same protein; source: E. coli BL21(DE3), purified (HisTrap FF, desalted on Sephadex G25); not shown: His6, C-terminal, kept
# B4: LreRihC_HisN (Limosilactobacillus reuteri) (protein)
# chain: TTKIIMDTDPGIDDAAALTMAINDPSLDLKLVTTVAGNVTADKTTANALKIIHFFGKDIPVAAGAKQPLIKPFEDAARIHGESGMPGYDFGDDYGKPLDKTAVEALHDAIMAEDEVILVPTGSYTNIALLFSEYPEVKSHIKQIVAMGGSFSGGNMTSAAEFNVFTDPDAAKIMYNAGVPIVTVGLDVTLKALLTADTIEKLGSLNKTGEMLHGLITHYNDGNDQGRPMHDVNTIFYLLHPEAFTTKDMWVDIQTDGPAIGATVGDIRAAYHDGKTNAKVCLDIDAEYFNKWFLEEVSKMK
# notes: E. coli BL21(DE3), pET24a(+); tetramer (121 kDa)
# Legend:
# purified protein = substrate: Nc1ccn([C@@H]2O[C@H](CO)[C@@H](O)[C@H]2O)c(=O)n1; assay: purified protein; settings: Tris-HCl pH 7.5
# [1] = substrate: Nc1ncnc2c1ncn2[C@@H]1O[C@H](CO)[C@@H](O)[C@H]1O; assay: HILIC-HPLC of released nucleobase, Michaelis-Menten fit; type: biochemical, Limosilactobacillus reuteri; settings: Tris-HCl pH 7.5
# Text: (§1) HILIC-HPLC of released nucleobase, Michaelis-Menten fit on LreRihC_HisC
# [2] = substrate: O=c1[nH]c(=O)c2ncn([C@@H]3O[C@H](CO)[C@@H](O)[C@H]3O)c2[nH]1; assay: as above; type: biochemical, Limosilactobacillus reuteri; settings: Tris-HCl pH 7.5
# Text: as §1
# [3] = substrate: OC[C@H]1O[C@@H](n2cnc3c(O)ncnc32)[C@H](O)[C@@H]1O; assay: as above; type: biochemical, Limosilactobacillus reuteri; settings: Tris-HCl pH 7.5
# Text: as §1
# [4] = biological target: the molecule itself; assay: SEC; analytical gel filtration on HiLoad 16/600 Superdex 200 pg, 1 mg of sample applied, mass read from a calibration curve (Gel Filtration Calibration Kit HMW)
# [5] = substrate: Nc1ncnc2c1ncn2[C@@H]1O[C@H](CO)[C@@H](O)[C@H]1O; assay: HILIC-HPLC of released nucleobase, Michaelis-Menten fit; type: biochemical, Limosilactobacillus reuteri; settings: Tris-HCl pH 7.5; remark: listed apart in the source
# Text: (§2) HILIC-HPLC of released nucleobase, Michaelis-Menten fit on LreRihC_HisN
# [6] = substrate: O=c1[nH]c(=O)c2ncn([C@@H]3O[C@H](CO)[C@@H](O)[C@H]3O)c2[nH]1; assay: as above; type: biochemical, Limosilactobacillus reuteri; settings: Tris-HCl pH 7.5; remark: listed apart in the source
# Text: as §2
# [7] = substrate: O=c1ccn([C@@H]2O[C@H](CO)[C@@H](O)[C@H]2O)c(=O)[nH]1; assay: as above; type: biochemical, Limosilactobacillus reuteri; settings: Tris-HCl pH 7.5
# Text: as §2
# [8] = substrate: OC[C@H]1O[C@@H](n2cnc3c(O)ncnc32)[C@H](O)[C@@H]1O; assay: as above; type: biochemical, Limosilactobacillus reuteri; settings: Tris-HCl pH 7.5; remark: listed apart in the source
# Text: as §2
protein,measurement,setting,value
B1,Km,purified protein,620 ± 60 µM
same,kcat,purified protein,58 ± 6 s⁻¹
same,Km,[1],480 ± 90 µM
same,kcat,[1],65 ± 7 s⁻¹
same,Km,[2],1300 ± 200 µM
same,kcat,[2],40 ± 6 s⁻¹
same,Km,[3],2600 ± 600 µM
same,kcat,[3],18 ± 6 s⁻¹
B2,stoichiometry N,[4],4
B3,stoichiometry N,[4],4
B4,Km,purified protein,680 ± 80 µM
same,kcat,purified protein,112 ± 4 s⁻¹
same,Km,[5],420 ± 50 µM
same,kcat,[5],118 ± 4 s⁻¹
same,Km,[6],1200 ± 200 µM
same,kcat,[6],57 ± 8 s⁻¹
same,Km,[7],320 ± 40 µM
same,kcat,[7],167 ± 6 s⁻¹
same,Km,[8],2500 ± 600 µM
same,kcat,[8],30 ± 5 s⁻¹
